Square brackets hold non-standard residues; d marks the D form. Ends that are not written are not given here. * marks the point of attachment. 1Nal = N[C@@H](Cc1cccc2ccccc12)C(=O)O; Stearoyl = CCCCCCCCCCCCCCCCCC(=O)*; Palmitoyl = CCCCCCCCCCCCCCCC(=O)*; Myristoyl = CCCCCCCCCCCCCC(=O)*; PheCl2 = dichlorophenylalanine; Lauroyl = CCCCCCCCCCCC(=O)*; PheNO2 = nitrophenylalanine; Decanoyl = CCCCCCCCCC(=O)*; Nle = CCCC[C@H](N)C(=O)O; Octanoyl = CCCCCCCC(=O)*

In test [1] the target is T1, human PrRP receptor GPR10 (human, UniProt P49683 1-370).
T1 construct: whole, on cells; also called GPR10 human receptor transfected in CHO cells; human GPR10 receptor
T1 sequence (looked up): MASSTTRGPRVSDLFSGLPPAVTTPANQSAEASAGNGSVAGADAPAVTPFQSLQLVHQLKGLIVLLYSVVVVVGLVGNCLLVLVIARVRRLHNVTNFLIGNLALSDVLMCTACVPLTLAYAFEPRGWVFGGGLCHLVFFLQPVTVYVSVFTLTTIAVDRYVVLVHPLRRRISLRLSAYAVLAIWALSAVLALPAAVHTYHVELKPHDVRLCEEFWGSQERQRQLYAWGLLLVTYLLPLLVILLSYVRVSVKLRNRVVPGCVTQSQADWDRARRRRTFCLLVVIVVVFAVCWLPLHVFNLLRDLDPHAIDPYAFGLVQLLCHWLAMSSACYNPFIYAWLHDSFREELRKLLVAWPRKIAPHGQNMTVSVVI
The test can be described thus: competition with 125I-human PrRP31, CHO cells with human GPR10.

The target in test [2] is T2, rat PrRP receptor in RC-4B/C cells (rat, UniProt Q64121 1-370).
T2 construct: whole, on cells; endogenous receptor of RC-4B/C cells (ATCC); also called rat receptor; GPR10 receptor expressed in rat hypophyseal cells
T2 sequence (looked up): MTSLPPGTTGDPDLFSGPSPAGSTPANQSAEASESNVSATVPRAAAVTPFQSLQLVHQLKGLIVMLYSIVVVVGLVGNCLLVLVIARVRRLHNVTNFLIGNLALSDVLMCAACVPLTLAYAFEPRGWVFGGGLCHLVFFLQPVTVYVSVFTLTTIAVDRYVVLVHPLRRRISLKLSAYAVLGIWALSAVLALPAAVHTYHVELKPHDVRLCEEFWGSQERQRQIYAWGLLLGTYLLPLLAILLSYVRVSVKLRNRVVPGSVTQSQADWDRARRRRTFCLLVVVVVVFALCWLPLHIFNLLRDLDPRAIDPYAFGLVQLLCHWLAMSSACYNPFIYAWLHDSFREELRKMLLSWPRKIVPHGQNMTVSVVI
In words: competition with 125I-rat PrRP31, RC-4B/C cells. In outline: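 Incubation 60 min at room temperature; cells solubilized in 0.1 mol/l NaOH and bound radioactivity γ-counted. Run in duplicate, repeated at least three times.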

Broadly, the Ki is a dissociation constant, usually derived from enzyme kinetics or from competition with a known ligand. High values mean a looser hold on the target, low ones a stronger hold on the target. As for Myristoyl-SRAHQHS[Nle]ETRTPDINPAWYTGRGIRPVGR[PheCl2]-NH2 [analog no. 14], the “% of PrRP31” value was found to be 409% in test [1] and 275% in test [2]. In addition, the Ki in test [1] stood at 0.95 nM; in test [2], 1.79 nM.
On the same counts, the results for SRAHQHS[Nle]ETRTPDINPAWYTGRGIRPVGR[PheNO2]-NH2 [analog no. 16] are 81%, 2.5%, 4.8 nM and 19.9 nM.
On the same counts, the results for Myristoyl-SHQRPADTHWYPRG[Nle]FPTIGRITARNGEVSR (scrambled peptide; also called 20 scram) [analog no. 20] are 1.5%, 4.6%, 262 nM and 123 nM.
Consider Stearoyl-SRAHQHS[Nle]ETRTPDINPAWYTGRGIRPVGRF-NH2 [analog no. 9], for which the results for the “% of PrRP31” value in test [1] and in test [2] were 72% and 514%, respectively. In addition, the figures for the Ki in test [1] and in test [2] were 5.39 nM and 0.96 nM, respectively.
For the molecule Palmitoyl-SRAHQHS[Nle]ETRTPDINPAWYTGRGIRPVGR[PheNO2]-NH2 [analog no. 18], in test [1], the “% of PrRP31” value is 505% and the Ki stood at 0.77 nM. Also, in test [2], the “% of PrRP31” value was found to be 850% and the Ki is 0.58 nM.
For the molecule Palmitoyl-SRAHQHS[Nle]ETRTPDINPAWYTGRGIRPVGRF-NH2 [analog no. 8], in test [1], the “% of PrRP31” value is 128% and the Ki is 3.03 nM. Also, in test [2], the “% of PrRP31” value was found to be 967% and the Ki turned out to be 0.51 nM.
Octanoyl-SRAHQHS[Nle]ETRTPDINPAWYTGRGIRPVGRF-NH2 [analog no. 4]: in test [1], the “% of PrRP31” value is 254% and the inhibitory constant (Ki) came to 1.53 nM. In test [2], the “% of PrRP31” value is 503% and the Ki worked out at 0.98 nM.
For Myristoyl-SRAHQHS[Nle]ETRTPDINPAWYTGRGIRPVGRF-NH2 [analog no. 7], in that order: 548%, 0.71 nM, 714% and 0.69 nM.
On the same counts, the results for Myristoyl-SRAHQHS[Nle]ETRTPDINPAWYTGRGIRPVGR[PheNO2]-NH2 [analog no. 17] are 245%, 1.59 nM, 250% and 1.97 nM.
On the same counts, the results for Decanoyl-SRAHQHS[Nle]ETRTPDINPAWYTGRGIRPVGRF-NH2 [analog no. 5] are 266%, 1.46 nM, 758% and 0.65 nM.
For Myristoyl-SRAHQHS[Nle]ETRTPDINPAWYTGRGIRPVGR[1Nal]-NH2 [analog no. 11], the “% of PrRP31” value worked out at 292% in test [1] and 124% in test [2]. In addition, the values for the Ki in test [1] and in test [2] were 1.33 nM and 3.96 nM, respectively.
For Palmitoyl-SRAHQHS[Nle]ETRTPDINPAWYTGRGIRPVGR[1Nal]-NH2 [analog no. 12], in that order: 91%, 227%, 4.27 nM and 2.17 nM.
Turning to Palmitoyl-SRAHQHS[Nle]ETRTPDINPAWYTGRGIRPVGR[PheCl2]-NH2 [analog no. 15], in test [1], the “% of PrRP31” value worked out at 370% and affinity was put at a Ki of 1.05 nM. In test [2], the “% of PrRP31” value came out at 379% and the inhibitory constant (Ki) amounted to 1.3 nM.
Regarding SRAHQHS[Nle]ETRTPDINPAWYTGRGIRPVGR[PheCl2]-NH2 [analog no. 13], in test [1], the “% of PrRP31” value is 171% and the affinity corresponds to a Ki of 2.27 nM. In addition, in test [2], the “% of PrRP31” value is 128% and affinity was put at a Ki of 3.84 nM.

B1: analog no. 2 (peptide)
peptide: Myristoyl-TPDINPAWYASRGIRPVGRF-NH2
SMILES: CCCCCCCCCCCCCC(=O)N[C@H](C(=O)N1CCC[C@H]1C(=O)N[C@@H](CC(=O)O)C(=O)N[C@H](C(=O)N[C@@H](CC(N)=O)C(=O)N1CCC[C@H]1C(=O)N[C@@H](C)C(=O)N[C@@H](Cc1c[nH]c2ccccc12)C(=O)N[C@@H](Cc1ccc(O)cc1)C(=O)N[C@@H](C)C(=O)N[C@@H](CO)C(=O)N[C@@H](CCCNC(=N)N)C(=O)NCC(=O)N[C@H](C(=O)N[C@@H](CCCNC(=N)N)C(=O)N1CCC[C@H]1C(=O)N[C@H](C(=O)NCC(=O)N[C@@H](CCCNC(=N)N)C(=O)N[C@@H](Cc1ccccc1)C(N)=O)C(C)C)[C@@H](C)CC)[C@@H](C)CC)[C@@H](C)O
Consider B1, for which, in test [1], the “% of PrRP31” value is 90% and the Ki stood at 4.33 nM. For the same molecule, in test [2], the “% of PrRP31” value was 1030% and the inhibitory constant (Ki) was found to be 0.48 nM.
On the same counts, the results for SRAHQHS[Nle]ETRTPDINPAWYTGRGIRPVGR[1Nal]-NH2 [analog no. 10] are 11%, 34.5 nM, 4.8% and 102 nM.
As for Lauroyl-SRAHQHS[Nle]ETRTPDINPAWYTGRGIRPVGRF-NH2 [analog no. 6], in test [1], the “% of PrRP31” value was 327% and the affinity, expressed as Ki, was 1.19 nM. For the same molecule, in test [2], the “% of PrRP31” value came out at 1260% and the Ki was 0.39 nM.
On the same counts, the results for SRTHRHSMEIKTPDINPAWYASRGIRPVGRF-NH2 (not fully specified (residue 11)) [analog no. 57] are 103%, 3.79 nM, 663% and 0.36 nM.

B2: analog no. 59 (peptide)
peptide: SRTHRHSMEIKTPDINPAWYASRGIRPVGRF
modifications: (N-palm(N-POE)) at the N-terminus; K(N-palm(N-POE)) at residue 11; C-terminal amide
As for B2, in test [1], the “% of PrRP31” value stood at 12% and the Ki was found to be 32.4 nM. In test [2], the “% of PrRP31” value stood at 85% and the Ki amounted to 2.82 nM.
